In experiment [1] the target is HIV-1 CA protein (capsid) (HIV-1). The experiment is described as follows: cell-based or functional assay.
The target of experiment [2] is HIV-1 gag polyprotein (HIV-1). The experiment is described as follows: cell-based or functional assay.

In the case of NYAD-1 (peptide), in experiment [1], the inhibition of mature-like particle formation from purified CA protein in vitro (EM) (fold molar equivalent) turned out to be 1. In experiment [2], this substance came in with a release of immature-like particles from gag-transfected 293T cells (p24 ELISA) (fold reduction at 50 µM) of 72 and a release of mature-like particles from gag-pol transfected 293T cells (p24 ELISA) (fold reduction at 50 µM) of 67.

Values taken from US20120165249A1.
